Experiments:
[1] = molecular target: VcNTDEcCTR (Vibrio cholerae | Escherichia coli) (UniProt Q9KV11); experiment: SDS-PAGE stability assay; 1 ug protein in loading buffer with 1% SDS heated at 95 °C for 0 to 300 s, 10% SDS-PAGE, hexamer and monomer bands quantified; hexamer to monomers
SEC = molecular target: the molecule itself; experiment: SEC
[2] = molecular target: the molecule itself; experiment: SDS-PAGE stability assay; 1 ug protein in loading buffer with 1% SDS heated at 95 °C for 0 to 300 s, 10% SDS-PAGE, hexamer and monomer bands quantified; hexamer to monomers

VcNTDEcCTR (from UniProt Q9KV11 1-72; P0A6X3 73-102)
half-life of hexamer in 1% SDS at 95 °C [1]: 39.2 s

B1: Vibrio cholerae Hfq (natural protein)
chain: MAKGQSLQDPFLNALRRERIPVSIYLVNGIKLQGQIESFDQFVILLKNTVNQMVYKHAISTVVPARPVSHHSGDRPASDRPAEKSEE
notes: also called VcHfq; full-length VcHfq
stoichiometry N (SEC): 6 | half-life of hexamer in 1% SDS at 95 °C [2]: 33.2 ± 1.3 s

B2: VcHfq72 (domain or fragment)
chain: MAKGQSLQDPFLNALRRERIPVSIYLVNGIKLQGQIESFDQFVILLKNTVNQMVYKHAISTVVPARPVSHHS
notes: also called VcHfq NTD; NTD alone of VcHfq
half-life of hexamer in 1% SDS at 95 °C [2]: 32.1 ± 1.9 s

— PMC3477312, “Characterization of Vibrio cholerae Hfq Provides Novel Insights into the Role of the Hfq C-Terminal Region” (Journal of Molecular Biology, 2012)
